Experimental data reported in the supplement of paper PMC11246515.
± gives the standard deviation of the averaged measurements.

Assay: total protein half-life in vivo (active degradation + dilution); higher = more stable protein
[1] = E. coli NCM3722 delta-clpP delta-lon delta-hslV, growth: N-lim chemostat, doubling time 6 h
[2] = E. coli NCM3722 delta-clpP, growth: N-lim chemostat, doubling time 6 h
[3] = E. coli NCM3722 delta-hslV, growth: N-lim chemostat, doubling time 6 h
[4] = E. coli NCM3722 delta-lon, growth: N-lim chemostat, doubling time 6 h
[5] = E. coli NCM3722 delta-smpB, growth: N-lim chemostat, doubling time 6 h
[6] = wild type E. coli NCM3722, growth: C-lim chemostat, doubling time 3 h
[7] = wild type E. coli NCM3722, growth: C-lim chemostat, doubling time 6 h
[8] = wild type E. coli NCM3722, growth: C-lim chemostat, doubling time 12 h
[9] = wild type E. coli NCM3722, growth: N-lim chemostat, doubling time 6 h
[10] = wild type E. coli NCM3722, growth: N-lim chemostat, doubling time 12 h
[11] = wild type E. coli NCM3722, growth: P-lim chemostat, doubling time 6 h
[12] = wild type E. coli NCM3722, growth: P-lim chemostat, doubling time 12 h

Sequence | total protein half-life in vivo [1] | total protein half-life in vivo [2] | total protein half-life in vivo [3] | total protein half-life in vivo [4] | total protein half-life in vivo [5] | total protein half-life in vivo [6] | total protein half-life in vivo [7] | total protein half-life in vivo [8] | total protein half-life in vivo [9] | total protein half-life in vivo [10] | total protein half-life in vivo [11] | total protein half-life in vivo [12]
MADILLLDNIDSFTYNLADQLRSNGHNVVIYRNHIPAQTLIERLATMSNPVLMLSPGPGVPSEAGCMPELLTRLRGKLPIIGICLGHQAIVEAYGGYVGQAGEILHGKASSIEHDGQAMFAGLTNPLPVARYHSLVGSNIPAGLTINAHFNGMVMAVRHDADRVCGFQFHPESILTTQGARLLEQTLAWAQQKLEPANTLQPILEKLYQAQTLSQQESHQLFSAVVRGELKPEQLAAALVSMKIRGEHPNEIAGAATALLENAAPFPRPDYLFADIVGTGGDGSNSINISTASAFVAAACGLKVAKHGNRSVSSKSGSSDLLAAFGINLDMNADKSRQALDELGVCFLFAPKYHTGFRHAMPVRQQLKTRTLFNVLGPLINPAHPPLALIGVYSPELVLPIAETLRVLGYQRAAVVHSGGMDEVSLHAPTIVAELHDGEIKSYQLTAEDFGLTPYHQEQLAGGTPEENRDILTRLLQGKGDAAHEAAVAANVAMLMRLHGHEDLQANAQTVLEVLRSGSAYDRVTALAARG | 3.96 ± 0.42 h | 3.018 ± 0.0036 h | 2.96 ± 0.18 h | 3.02 ± 0.12 h | 2.769 ± 0.019 h | 3.23 ± 0.33 h | 4.79 ± 0.1 h | 10.4 ± 1.9 h | 3.01 ± 0.27 h | 3.72 ± 0.29 h | 6.54 ± 1.6 h | 12.2 ± 3.9 h
MDKIFVDEAVNELQTIQDMLRWSVSRFSAANIWYGHGTDNPWDEAVQLVLPSLYLPLDIPEDMRTARLTSSEKHRIVERVIRRVNERIPVAYLTNKAWFCGHEFYVDERVLVPRSPIGELINNKFAGLISKQPQHILDMCTGSGCIAIACAYAFPDAEVDAVDISPDALAVAEQNIEEHGLIHNVIPIRSDLFRDLPKVQYDLIVTNPPYVDAEDMSDLPNEYRHEPELGLASGTDGLKLTRRILGNAADYLADDGVLICEVGNSMVHLMEQYPDVPFTWLEFDNGGDGVFMLTKEQLIAAREHFAIYKD | 5.46 ± 2.1 h | 3.84 ± 0.055 h | 3.656 ± 0.0091 h | 3.97 ± 0.38 h | 3.9 ± 0.11 h | 2.81 ± 0.12 h | 5.74 ± 0.41 h | 10 ± 0.21 h | 3.85 ± 0.054 h | 6.16 ± 0.26 h | 5.56 ± 0.2 h | 11 ± 1.2 h
MSKLIVPQWPQPKGVAACSSTRIGGVSLPPYDSLNLGAHCGDNPDHVEENRKRLFAAGNLPSKPVWLEQVHGKDVLKLTGEPYASKRADASYSNTPGTVCAVMTADCLPVLFCNRAGTEVAAAHAGWRGLCAGVLEETVSCFADNPENILAWLGPAIGPRAFEVGGEVREAFMAVDAKASAAFIQHGDKYLADIYQLARQRLANVGVEQIFGGDRCTYTENETFFSYRRDKTTGRMASFIWLI | 5.05 ± 0.14 h | 4.77 ± 0.76 h | 4.885 ± 0.007 h | 5.03 ± 0.24 h | 4.05 ± 1 h | 3.198 ± 0.027 h | 5.11 ± 0.72 h | 8.61 ± 0.21 h | 5.03 ± 0.22 h | 9.17 ± 0.77 h | 5.644 ± 0.043 h | 11.9 ± 0.43 h
MSKPPLFFIVIIGLIVVAASFRFMQQRREKADNDMAPLQQKLVVVSNKREKPINDRRSRQQEVTPAGTSIRYEASFKPQSGGMEQTFRLDAQQYHALTVGDKGTLSYKGTRFVSFVGEQ | – | 6.5 h | 6.4 ± 0.69 h | 5.45 ± 0.15 h | 5.65 ± 0.38 h | 3.61 ± 0.1 h | 6.11 ± 0.42 h | 11.6 ± 0.63 h | 5.71 ± 0.065 h | 11.3 ± 0.54 h | 5.66 ± 0.5 h | 11.5 ± 0.14 h
MNKTAIALLALLASSASLAATPWQKITQPVPGSAQSIGSFSNGCIVGADTLPIQSEHYQVMRTDQRRYFGHPDLVMFIQRLSSQVSNLGMGTVLIGDMGMPAGGRFNGGHASHQTGLDVDIFLQLPKTRWTSAQLLRPQALDLVSRDGKHVVSTLWKPEIFSLIKLAAQDKDVTRIFVNPAIKQQLCLDAGTDRDWLRKVRPWFQHRAHMHVRLRCPADSLECEDQPLPPSGDGCGAELQSWFEPPKPGTTKPEKKTPPPLPPSCQALLDEHVI [P0C0T5] | – | – | 0.831 h | – | – | 0.792 h | – | – | – | – | – | –
MQSVTPTSQYLKALNEGSHQPDDVQKEAVSRLEIIYQELINSTPPAPRTSGLMARVGKLWGKREDTKHTPVRGLYMWGGVGRGKTWLMDLFYQSLPGERKQRLHFHRFMLRVHEELTALQGQTDPLEIIADRFKAETDVLCFDEFFVSDITDAMLLGGLMKALFARGITLVATSNIPPDELYRNGLQRARFLPAIDAIKQHCDVMNVDAGVDYRLRTLTQAHLWLSPLHDETRAQMDKLWLALAGGKRENSPTLEINHRPLATMGVENQTLAVSFTTLCVDARSQHDYIALSRLFHTVMLFDVPVMTRLMESEARRFIALVDEFYERHVKLVVSAEVPLYEIYQGDRLKFEFQRCLSRLQEMQSEEYLKREHLAG | 3.66 ± 0.54 h | 2.97 ± 0.16 h | 3.35 ± 0.15 h | 2.58 h | 3.103 ± 0.03 h | 2.72 ± 0.05 h | 5.71 ± 0.58 h | 9.73 ± 1.3 h | 3.4 ± 0.15 h | 5.55 ± 0.15 h | 5.25 ± 0.66 h | 9.34 ± 1.1 h
MNTTPSQRLGFLHHIRLVPLFACILGGILVLFALSSALAGYFLWQADRDQRDVTAEIEIRTGLANSSDFLRSARINMIQAGAASRIAEMEAMKRNIAQAESEIKQSQQGYRAYQNRPVKTPADEALDTELNQRFQAYITGMQPMLKYAKNGMFEAIINHESEQIRPLDNAYTDILNKAVKIRSTRANQLAELAHQRTRLGGMFMIGAFVLALVMTLITFMVLRRIVIRPLQHAAQRIEKIASGDLTMNDEPAGRNEIGRLSRHLQQMQHSLGMTVGTVRQGAEEIYRGTSEISAGNADLSSRTEEQAAAIEQTAASMEQLTATVKQNADNAHHASKLAQEASIKASDGGQTVSGVVKTMGAISTSSKKISEITAVINSIAFQTNILALNAAVEAARAGEQGRGFAVVASEVRTLASRSAQAAKEIEGLISESVRLIDLGSDEVATAGKTMSTIVDAVASVTHIMQEIAAASDEQSRGITQVSQAISEMDKVTQQNASLVEEASAAAVSLEEQAARLTEAVDVFRLHKHSVSAEPRGAGEPVSFATV | – | – | – | – | – | 2.39 ± 0.0043 h | 4.42 ± 0.23 h | 6.36 ± 0.25 h | – | – | – | –
MRLEVFCEDRLGLTRELLDLLVLRGIDLRGIEIDPIGRIYLNFAELEFESFSSLMAEIRRIAGVTDVRTVPWMPSEREHLALSALLEALPEPVLSVDMKSKVDMANPASCQLFGQKLDRLRNHTAAQLINGFNFLRWLESEPQDSHNEHVVINGQNFLMEITPVYLQDENDQHVLTGAVVMLRSTIRMGRQLQNVAAQDVSAFSQIVAVSPKMKHVVEQAQKLAMLSAPLLITGDTGTGKDLFAYACHQASPRAGKPYLALNCASIPEDAVESELFGHAPEGKKGFFEQANGGSVLLDEIGEMSPRMQAKLLRFLNDGTFRRVGEDHEVHVDVRVICATQKNLVELVQKGMFREDLYYRLNVLTLNLPPLRDCPQDIMPLTELFVARFADEQGVPRPKLAADLNTVLTRYAWPGNVRQLKNAIYRALTQLDGYELRPQDILLPDYDAATVAVGEDAMEGSLDEITSRFERSVLTQLYRNYPSTRKLAKRLGVSHTAIANKLREYGLSQKKNEE | 6.71 ± 0.79 h | 4.83 ± 0.089 h | 4.73 ± 0.23 h | 6.13 ± 0.71 h | 4.6 ± 0.14 h | 2.69 ± 0.14 h | 5.844 ± 0.052 h | 8.21 ± 0.57 h | 4.51 ± 0.34 h | 8.243 ± 0.066 h | 4.84 ± 0.092 h | 9.34 ± 0.13 h
MDEFKPEDELKPDPSDRRTGRSRQSSERSERTERGEPQINFDDIELDDTDDRRPTRAQKERNEEPEIEEEIDESEDETVDEERVERRPRKRKKAASKPASRQYMMMGVGILVLLLLIIGIGSALKAPSTTSSDQTASGEKSIDLAGNATDQANGVQPAPGTTSAENTQQDVSLPPISSTPTQGQTPVATDGQQRVEVQGDLNNALTQPQNQQQLNNVAVNSTLPTEPATVAPVRNGNASRDTAKTQTAERPSTTRPARQQAVIEPKKPQATVKTEPKPVAQTPKRTEPAAPVASTKAPAATSTPAPKETATTAPVQTASPAQTTATPAAGAKTAGNVGSLKSAPSSHYTLQLSSSSNYDNLNGWAKKENLKNYVVYETTRNGQPWYVLVSGVYASKEEAKKAVSTLPADVQAKNPWAKPLRQVQADLK | 5.8 ± 0.35 h | 6.01 ± 0.27 h | 5.595 ± 0.021 h | 5.74 ± 0.32 h | 5.54 ± 0.12 h | 2.84 ± 0.091 h | 5.51 ± 0.26 h | 9.07 ± 0.37 h | 5.58 ± 0.49 h | 11.9 ± 2 h | 5.099 ± 0.038 h | 10.285 ± 0.01 h
MSEISRQEFQRRRQALVEQMQPGSAALIFAAPEVTRSADSEYPYRQNSDFWYFTGFNEPEAVLVLIKSDDTHNHSVLFNRVRDLTAEIWFGRRLGQDAAPEKLGVDRALAFSEINQQLYQLLNGLDVVYHAQGEYAYADVIVNSALEKLRKGSRQNLTAPATMIDWRPVVHEMRLFKSPEEIAVLRRAGEITAMAHTRAMEKCRPGMFEYHLEGEIHHEFNRHGARYPSYNTIVGSGENGCILHYTENECEMRDGDLVLIDAGCEYKGYAGDITRTFPVNGKFTQAQREIYDIVLESLETSLRLYRPGTSILEVTGEVVRIMVSGLVKLGILKGDVDELIAQNAHRPFFMHGLSHWLGLDVHDVGVYGQDRSRILEPGMVLTVEPGLYIAPDAEVPEQYRGIGIRIEDDIVITETGNENLTASVVKKPEEIEALMVAARKQ | 5.813 ± 0.036 h | 6.45 ± 0.88 h | 5.23 ± 0.15 h | 6 ± 0.092 h | 5.36 ± 0.3 h | 3.12 ± 0.1 h | 6 ± 0.22 h | 12.4 ± 1.5 h | 5.53 ± 0.15 h | 10.3 ± 0.72 h | 5.95 ± 0.51 h | 12.8 ± 0.42 h
